The text below walks through data of WO2009104736A1 (dated 2009).

In assay [1] the target is amyloid β 1-42 protein (Aβ 1-42) (UniProt P05067). Kind of assay: SPR competition, Biacore J; Aβ 1-42 on a CM5 chip saturated with 3.4A10 (competitor), then 3.4A10 and 4G8 mixed 20:1. Also on record: unit not given here. For orientation: SPR reads the build-up and loss of mass on a sensor chip optically.
Another assay has as its target T1, Aβ 34-42 (UniProt P05067 705-713).
T1 construct: domain: Aβ 34-42; Positions count on Aβ
T1 peptide (looked up): LMVGGVVIA
In words: dot blot of peptides on nitrocellulose.

The next assay concerns the target T2, Aβ 25-35 (UniProt P05067 696-706).
T2 construct: domain: Aβ 25-35; Positions count on Aβ; also called product code 4309-v
T2 peptide (looked up): GSNKGAIIGLM
In words: dot blot of peptides on nitrocellulose.

amyloid β 1-42 protein (Aβ 1-42), sequence (P05067 672-713 limits assumed): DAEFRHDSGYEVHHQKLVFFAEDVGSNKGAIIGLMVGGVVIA

As to “mouse anti-human Aβ monoclonal antibody 4G8”, the enhanced reaction (response level) in assay [1] was over 2000.

B1: monoclonal antibody 3.4A10 (antibody of Example 1) (antibody, V domains shown)
VH: EVQLLESGGGLVQPGGSRKLSCAASGFTFSSFGVHWFRQAPEKGLEWVAYISSGSSTIYYADTVKGRFTISRDNPKNTLFLQMASLRSEDTAMYYCAPYGSSPFPYWGQGTLVTVST
VL: ELQLTQSPASLAVSLGQRATISCRASESVDSYGYNFMHWYQQKPGQPPKLLIYLASNLESGVPARFSGSGSRTDFTLTIDPVEADDAATYYCQQNNEDPLTFGAGTKLELKR
notes: Mouse IgG2b from a hybridoma, purified from ascites; also called TAPIR antibody
For the molecule B1, the binding result with Aβ 34-42 and with Aβ 25-35 was “no binding (tested: 1 μg/ml antibody)” throughout.
